Measured values as given in publication PMC9536601 (2022).

Columns and labels:
Experiment in all cases: SPR
[1] = target: T1, Ad6 hexon, on wild-type human adenovirus type 6 virions (human adenovirus type 6)
T1 chain: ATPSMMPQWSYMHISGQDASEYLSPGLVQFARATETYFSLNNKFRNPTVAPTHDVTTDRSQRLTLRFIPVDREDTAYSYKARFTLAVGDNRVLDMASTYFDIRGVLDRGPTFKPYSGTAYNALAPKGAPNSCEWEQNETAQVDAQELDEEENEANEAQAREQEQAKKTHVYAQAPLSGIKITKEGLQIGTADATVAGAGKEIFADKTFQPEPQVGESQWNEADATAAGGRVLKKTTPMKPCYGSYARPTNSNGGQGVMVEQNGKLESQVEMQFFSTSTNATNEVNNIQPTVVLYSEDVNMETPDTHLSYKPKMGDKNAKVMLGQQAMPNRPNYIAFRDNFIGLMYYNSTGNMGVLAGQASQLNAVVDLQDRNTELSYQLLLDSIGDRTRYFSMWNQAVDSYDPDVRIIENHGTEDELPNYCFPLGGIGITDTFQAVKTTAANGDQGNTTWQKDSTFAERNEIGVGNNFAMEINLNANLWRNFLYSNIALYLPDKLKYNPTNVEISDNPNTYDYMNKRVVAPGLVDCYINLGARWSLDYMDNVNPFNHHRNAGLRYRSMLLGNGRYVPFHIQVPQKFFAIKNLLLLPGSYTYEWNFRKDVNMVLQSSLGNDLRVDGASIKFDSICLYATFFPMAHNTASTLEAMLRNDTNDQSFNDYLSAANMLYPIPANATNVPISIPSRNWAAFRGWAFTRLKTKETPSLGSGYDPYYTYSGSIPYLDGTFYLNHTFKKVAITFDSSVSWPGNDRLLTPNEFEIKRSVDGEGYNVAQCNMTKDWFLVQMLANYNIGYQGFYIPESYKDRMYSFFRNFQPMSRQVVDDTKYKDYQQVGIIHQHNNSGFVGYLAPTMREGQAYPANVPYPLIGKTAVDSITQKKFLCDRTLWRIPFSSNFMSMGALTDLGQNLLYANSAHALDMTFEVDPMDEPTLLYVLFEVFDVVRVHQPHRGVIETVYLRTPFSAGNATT

[2] = target: T2, Ad5 hexon, on wild-type human adenovirus type 5 virions (human adenovirus type 5, UniProt P04133 2-952)
T2 chain: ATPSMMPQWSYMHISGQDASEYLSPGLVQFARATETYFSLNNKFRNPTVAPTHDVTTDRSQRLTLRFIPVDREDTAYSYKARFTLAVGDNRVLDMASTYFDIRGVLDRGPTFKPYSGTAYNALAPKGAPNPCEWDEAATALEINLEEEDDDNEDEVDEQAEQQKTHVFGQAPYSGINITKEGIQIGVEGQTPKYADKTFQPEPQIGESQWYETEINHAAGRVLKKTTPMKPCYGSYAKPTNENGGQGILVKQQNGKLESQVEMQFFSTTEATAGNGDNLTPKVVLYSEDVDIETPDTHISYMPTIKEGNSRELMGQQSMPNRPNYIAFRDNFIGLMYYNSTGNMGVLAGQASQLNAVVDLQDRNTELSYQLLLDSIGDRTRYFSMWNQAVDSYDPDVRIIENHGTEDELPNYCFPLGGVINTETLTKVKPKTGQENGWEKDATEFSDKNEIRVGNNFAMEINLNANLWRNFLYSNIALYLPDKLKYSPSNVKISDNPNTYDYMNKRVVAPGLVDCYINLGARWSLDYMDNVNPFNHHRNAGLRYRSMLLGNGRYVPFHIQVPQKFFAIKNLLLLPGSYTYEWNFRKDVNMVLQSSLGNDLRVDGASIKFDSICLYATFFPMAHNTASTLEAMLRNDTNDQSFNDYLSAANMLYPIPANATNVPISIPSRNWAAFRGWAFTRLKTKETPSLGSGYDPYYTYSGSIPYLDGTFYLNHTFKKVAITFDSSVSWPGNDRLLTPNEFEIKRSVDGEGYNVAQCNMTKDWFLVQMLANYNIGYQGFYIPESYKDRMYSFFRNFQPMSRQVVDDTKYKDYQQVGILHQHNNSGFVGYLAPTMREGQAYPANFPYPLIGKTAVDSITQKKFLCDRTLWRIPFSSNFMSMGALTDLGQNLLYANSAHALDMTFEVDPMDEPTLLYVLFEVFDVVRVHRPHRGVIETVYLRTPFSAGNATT

[3] = target: T3, Ad1 hexon, on wild-type human adenovirus type 1 virions (human adenovirus type 1)
T3 chain: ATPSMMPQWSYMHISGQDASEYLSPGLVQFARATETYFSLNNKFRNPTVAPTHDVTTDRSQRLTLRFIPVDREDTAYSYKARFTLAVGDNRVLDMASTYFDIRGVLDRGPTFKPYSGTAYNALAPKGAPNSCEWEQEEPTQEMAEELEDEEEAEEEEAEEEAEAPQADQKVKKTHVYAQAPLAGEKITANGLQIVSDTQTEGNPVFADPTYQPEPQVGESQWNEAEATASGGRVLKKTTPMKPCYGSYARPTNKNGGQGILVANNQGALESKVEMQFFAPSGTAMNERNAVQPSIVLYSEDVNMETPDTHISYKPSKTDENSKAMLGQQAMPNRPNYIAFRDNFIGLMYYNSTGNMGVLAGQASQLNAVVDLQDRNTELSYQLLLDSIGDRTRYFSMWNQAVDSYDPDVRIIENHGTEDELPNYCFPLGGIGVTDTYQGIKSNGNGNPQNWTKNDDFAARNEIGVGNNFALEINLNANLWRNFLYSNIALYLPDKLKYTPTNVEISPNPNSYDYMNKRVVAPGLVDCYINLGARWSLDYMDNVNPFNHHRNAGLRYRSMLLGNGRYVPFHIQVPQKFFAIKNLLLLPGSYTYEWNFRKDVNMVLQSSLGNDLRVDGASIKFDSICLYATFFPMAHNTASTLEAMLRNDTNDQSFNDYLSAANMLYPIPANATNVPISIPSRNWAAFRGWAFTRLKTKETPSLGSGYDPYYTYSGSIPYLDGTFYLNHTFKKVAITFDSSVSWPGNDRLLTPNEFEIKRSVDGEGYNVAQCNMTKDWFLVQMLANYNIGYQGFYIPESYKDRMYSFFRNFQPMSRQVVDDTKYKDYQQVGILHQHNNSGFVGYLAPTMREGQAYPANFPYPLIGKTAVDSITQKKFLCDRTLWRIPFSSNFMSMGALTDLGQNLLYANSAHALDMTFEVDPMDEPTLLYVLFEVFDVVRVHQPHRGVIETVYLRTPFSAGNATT

B1: mouse coagulation factor X (natural protein)
chain 1: ANSFFEEFKKGNLERECMEEICSYEEVREIFEDDEKTKEYWTKYKDGDQCESSPCQNQGACRDGIGGYTCTCSEGFEGKNCELFVRKLCRLDNGDCDQFCREEQNSVVCSCASGYFLGNDGKSCISTAPFPCGKITTGRR
chain 2: VALNTSDSELDLEDALLDEDFLSPTENPIELLNLNETQPERSSDDLVRIVGGRECKDGECPWQALLINEDNEGFCGGTILNEFYILTAAHCLHQARRFKVRVGDRNTEKEEGNEMVHEVDVVIKHNKFQRDTYDYDIAVLRLKTPITFRMNVAPACLPQKDWAESTLMTQKTGIVSGFGRTHEKGRQSNILKMLEVPYVDRNTCKLSTSFSITQNMFCAGYEAKLEDACQGDSGGPHVTRFKNTYYVTGIVSWGEGCARKGKYGIYTKVTTFLKWIDRSMKARVGPTAETPRTAGPPN
modifications: gamma-carboxylated glutamate residues in the Gla domain
Kd [1]: 0.42 nM | Kd [2]: 0.35 nM | Kd [3]: 0.31 nM
